Measured values as given in patent US20230301998A1 (SANFORD BURNHAM PREBYS MEDICAL DISCOVERY INSTITUTE, published 2023).

How the values were obtained:
[1] = biological target: T1, Interferon-activable protein 204 (Mus musculus) (IFI204) (Mus musculus, UniProt P0DOV2 1-619); assay: Flag IP and immunoblot of transfected HEK293T lysates
T1 construct: also called IF204
T1 sequence: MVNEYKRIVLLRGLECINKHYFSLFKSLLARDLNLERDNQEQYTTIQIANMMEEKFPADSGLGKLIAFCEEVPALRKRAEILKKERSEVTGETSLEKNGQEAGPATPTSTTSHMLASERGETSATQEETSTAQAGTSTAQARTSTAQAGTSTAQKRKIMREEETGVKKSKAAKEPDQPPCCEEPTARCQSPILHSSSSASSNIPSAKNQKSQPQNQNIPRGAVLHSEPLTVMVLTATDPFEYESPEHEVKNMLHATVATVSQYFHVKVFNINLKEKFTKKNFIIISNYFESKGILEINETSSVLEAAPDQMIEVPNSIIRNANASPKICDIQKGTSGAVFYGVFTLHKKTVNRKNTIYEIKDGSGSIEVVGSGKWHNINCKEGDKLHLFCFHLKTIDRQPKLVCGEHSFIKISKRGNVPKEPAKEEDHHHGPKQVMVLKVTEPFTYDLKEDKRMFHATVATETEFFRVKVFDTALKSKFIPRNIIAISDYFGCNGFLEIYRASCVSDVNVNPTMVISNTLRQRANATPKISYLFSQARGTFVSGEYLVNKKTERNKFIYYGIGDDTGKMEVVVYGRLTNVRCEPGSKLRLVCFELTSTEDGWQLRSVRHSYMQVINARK

[2] = biological target: T2, PFKFB3 (human, UniProt Q16875 1-520, limits assumed); assay: Flag IP of Flag-SHARPIN from WM115 lysate, on-bead tryptic digestion, LC/MS-MS
T2 construct: endogenous protein co-purified from WM115 lysate
T2 sequence (Q16875 whole entry): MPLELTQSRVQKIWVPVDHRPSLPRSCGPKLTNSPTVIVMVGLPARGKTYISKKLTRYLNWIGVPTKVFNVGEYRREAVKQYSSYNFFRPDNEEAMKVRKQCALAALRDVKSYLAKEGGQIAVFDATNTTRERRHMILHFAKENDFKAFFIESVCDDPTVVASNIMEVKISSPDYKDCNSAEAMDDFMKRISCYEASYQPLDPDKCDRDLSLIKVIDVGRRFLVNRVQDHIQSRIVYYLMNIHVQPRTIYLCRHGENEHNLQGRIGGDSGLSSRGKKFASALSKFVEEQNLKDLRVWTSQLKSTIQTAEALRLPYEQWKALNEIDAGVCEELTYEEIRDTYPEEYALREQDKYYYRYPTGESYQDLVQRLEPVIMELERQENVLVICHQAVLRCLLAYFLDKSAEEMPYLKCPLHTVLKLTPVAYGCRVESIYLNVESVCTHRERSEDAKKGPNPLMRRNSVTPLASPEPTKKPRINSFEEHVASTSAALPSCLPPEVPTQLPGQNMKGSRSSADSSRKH
Protocol: (§1) To identify SHARPIN-interacting proteins, WM115 cells were transfected with Flag-tagged SHARPIN or control empty plasmid. Cell lysates were prepared using 1% Triton X-100 buffer [50 mM Tris-HCl, pH7.4, 1% (v/v) Triton X-100, 150 mM NaCl, 1 mM EDTA, and protease and phosphatase inhibitor cocktails (Thermo Fisher Scientific)]. Lysates were pre-cleared with protein A/G beads (Santa Cruz Biotechnology) for 1 h at 4° C. followed by immunoprecipitation using FLAG-M2-agarose beads (Sigma-Aldrich) overnight at 4° C. Beads were then washed with lysis buffer and TBS containing lx protease inhibitor cocktail before being subjected to on-bead tryptic digestion followed by mass spectrometry. In Vitro Methylation Assay.

[3] = biological target: T3, VIM (human, UniProt P08670 2-466); assay: as above
T3 construct: endogenous protein co-purified from WM115 lysate
T3 sequence (P08670 2-466 limits assumed): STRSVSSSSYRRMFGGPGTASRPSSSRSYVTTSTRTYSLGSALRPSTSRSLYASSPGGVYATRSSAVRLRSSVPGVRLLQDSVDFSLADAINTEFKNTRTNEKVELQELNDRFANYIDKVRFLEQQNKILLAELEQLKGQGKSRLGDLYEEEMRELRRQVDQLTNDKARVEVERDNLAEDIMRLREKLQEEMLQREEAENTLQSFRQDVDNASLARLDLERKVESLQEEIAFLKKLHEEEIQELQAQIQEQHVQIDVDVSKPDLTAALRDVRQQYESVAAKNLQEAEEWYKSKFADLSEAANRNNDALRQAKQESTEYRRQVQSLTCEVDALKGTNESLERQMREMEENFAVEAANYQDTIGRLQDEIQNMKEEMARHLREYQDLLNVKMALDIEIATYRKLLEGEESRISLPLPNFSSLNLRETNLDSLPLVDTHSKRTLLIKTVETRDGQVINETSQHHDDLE
Protocol: as §1

[4] = biological target: T4, SLC25A13 (human, UniProt Q9UJS0 2-675); assay: as above
T4 construct: endogenous protein co-purified from WM115 lysate
T4 sequence (looked up): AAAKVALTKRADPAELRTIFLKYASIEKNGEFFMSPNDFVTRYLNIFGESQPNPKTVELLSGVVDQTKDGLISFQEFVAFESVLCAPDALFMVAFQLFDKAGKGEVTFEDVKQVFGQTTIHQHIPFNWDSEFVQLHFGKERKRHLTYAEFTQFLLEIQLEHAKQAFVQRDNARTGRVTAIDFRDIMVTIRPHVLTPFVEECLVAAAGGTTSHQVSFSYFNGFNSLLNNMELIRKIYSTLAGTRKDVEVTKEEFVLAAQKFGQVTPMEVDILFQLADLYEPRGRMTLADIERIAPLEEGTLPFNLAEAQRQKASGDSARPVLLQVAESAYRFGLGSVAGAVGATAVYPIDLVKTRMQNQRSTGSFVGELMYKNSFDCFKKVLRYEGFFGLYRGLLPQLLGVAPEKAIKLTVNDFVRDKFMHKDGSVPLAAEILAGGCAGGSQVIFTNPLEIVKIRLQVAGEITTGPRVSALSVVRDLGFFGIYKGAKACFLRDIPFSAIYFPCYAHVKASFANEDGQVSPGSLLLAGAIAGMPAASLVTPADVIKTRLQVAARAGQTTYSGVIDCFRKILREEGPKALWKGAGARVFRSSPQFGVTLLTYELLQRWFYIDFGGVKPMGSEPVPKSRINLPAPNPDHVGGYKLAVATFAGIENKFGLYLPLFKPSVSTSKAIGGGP
Protocol: as §1

[5] = biological target: T5, P4HB (human, UniProt P07237 18-508); assay: as above
T5 construct: endogenous protein co-purified from WM115 lysate
T5 sequence (P07237 18-508 limits assumed): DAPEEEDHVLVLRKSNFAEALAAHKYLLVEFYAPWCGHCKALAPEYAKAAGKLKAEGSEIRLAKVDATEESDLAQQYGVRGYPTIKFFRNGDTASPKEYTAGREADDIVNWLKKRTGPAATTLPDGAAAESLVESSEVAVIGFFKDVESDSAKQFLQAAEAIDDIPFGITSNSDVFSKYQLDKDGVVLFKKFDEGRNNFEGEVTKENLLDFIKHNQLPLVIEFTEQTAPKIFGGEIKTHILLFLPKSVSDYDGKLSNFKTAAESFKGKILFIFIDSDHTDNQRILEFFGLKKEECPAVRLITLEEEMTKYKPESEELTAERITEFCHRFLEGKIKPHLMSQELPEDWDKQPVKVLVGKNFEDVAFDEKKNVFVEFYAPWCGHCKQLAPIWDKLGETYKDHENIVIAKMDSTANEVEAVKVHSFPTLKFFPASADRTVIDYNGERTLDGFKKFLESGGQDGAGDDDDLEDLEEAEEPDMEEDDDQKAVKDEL
Protocol: as §1

[6] = biological target: T6, CLTC (human, UniProt Q00610 2-1675); assay: as above
T6 construct: endogenous protein co-purified from WM115 lysate
T6 sequence (Q00610 2-1675 limits assumed): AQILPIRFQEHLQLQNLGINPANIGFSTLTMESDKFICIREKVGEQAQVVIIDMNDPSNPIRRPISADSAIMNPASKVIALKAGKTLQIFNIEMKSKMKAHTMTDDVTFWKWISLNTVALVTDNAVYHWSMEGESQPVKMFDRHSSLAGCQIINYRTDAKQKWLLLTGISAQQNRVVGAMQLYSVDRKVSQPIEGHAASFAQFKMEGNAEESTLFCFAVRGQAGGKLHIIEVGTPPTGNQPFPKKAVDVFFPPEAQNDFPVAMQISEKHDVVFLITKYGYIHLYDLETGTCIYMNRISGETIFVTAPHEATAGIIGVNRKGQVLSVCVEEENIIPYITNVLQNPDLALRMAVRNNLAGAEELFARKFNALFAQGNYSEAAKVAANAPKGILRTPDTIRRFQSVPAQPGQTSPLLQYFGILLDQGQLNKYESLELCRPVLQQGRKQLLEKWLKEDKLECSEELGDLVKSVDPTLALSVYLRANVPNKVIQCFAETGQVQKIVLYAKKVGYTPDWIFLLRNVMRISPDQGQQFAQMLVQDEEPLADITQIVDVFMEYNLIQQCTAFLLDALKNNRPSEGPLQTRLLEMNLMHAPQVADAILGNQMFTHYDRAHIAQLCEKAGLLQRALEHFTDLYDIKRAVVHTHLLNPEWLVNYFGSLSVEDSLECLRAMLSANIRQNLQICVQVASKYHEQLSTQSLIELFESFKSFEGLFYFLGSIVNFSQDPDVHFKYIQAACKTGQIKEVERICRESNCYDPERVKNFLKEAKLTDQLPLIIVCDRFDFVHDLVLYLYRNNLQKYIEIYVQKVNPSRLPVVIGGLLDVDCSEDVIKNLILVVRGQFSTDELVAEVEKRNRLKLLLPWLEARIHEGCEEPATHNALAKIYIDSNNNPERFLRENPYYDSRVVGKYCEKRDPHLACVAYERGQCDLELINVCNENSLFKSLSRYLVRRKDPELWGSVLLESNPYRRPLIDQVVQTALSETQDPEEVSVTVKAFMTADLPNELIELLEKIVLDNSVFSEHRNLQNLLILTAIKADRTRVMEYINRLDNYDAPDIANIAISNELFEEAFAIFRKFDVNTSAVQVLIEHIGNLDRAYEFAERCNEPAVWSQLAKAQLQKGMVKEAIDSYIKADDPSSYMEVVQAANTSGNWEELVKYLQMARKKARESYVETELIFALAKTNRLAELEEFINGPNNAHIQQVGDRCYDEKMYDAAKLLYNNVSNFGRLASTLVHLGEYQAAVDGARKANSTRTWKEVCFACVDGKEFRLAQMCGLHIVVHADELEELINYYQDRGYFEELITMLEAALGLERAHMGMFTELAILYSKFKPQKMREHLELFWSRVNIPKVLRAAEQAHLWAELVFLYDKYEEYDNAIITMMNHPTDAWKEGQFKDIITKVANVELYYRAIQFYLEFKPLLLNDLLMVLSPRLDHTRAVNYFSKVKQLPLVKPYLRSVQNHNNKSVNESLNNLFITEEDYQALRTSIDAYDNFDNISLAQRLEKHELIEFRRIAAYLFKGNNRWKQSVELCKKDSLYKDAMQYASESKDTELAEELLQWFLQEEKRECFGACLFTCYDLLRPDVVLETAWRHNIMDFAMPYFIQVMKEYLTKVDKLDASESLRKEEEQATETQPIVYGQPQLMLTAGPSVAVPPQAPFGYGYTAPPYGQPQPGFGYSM
Protocol: as §1

[7] = biological target: T7, MYH10 (human, UniProt P35580 1-1976, limits assumed); assay: as above
T7 construct: endogenous protein co-purified from WM115 lysate
T7 sequence (P35580 whole entry): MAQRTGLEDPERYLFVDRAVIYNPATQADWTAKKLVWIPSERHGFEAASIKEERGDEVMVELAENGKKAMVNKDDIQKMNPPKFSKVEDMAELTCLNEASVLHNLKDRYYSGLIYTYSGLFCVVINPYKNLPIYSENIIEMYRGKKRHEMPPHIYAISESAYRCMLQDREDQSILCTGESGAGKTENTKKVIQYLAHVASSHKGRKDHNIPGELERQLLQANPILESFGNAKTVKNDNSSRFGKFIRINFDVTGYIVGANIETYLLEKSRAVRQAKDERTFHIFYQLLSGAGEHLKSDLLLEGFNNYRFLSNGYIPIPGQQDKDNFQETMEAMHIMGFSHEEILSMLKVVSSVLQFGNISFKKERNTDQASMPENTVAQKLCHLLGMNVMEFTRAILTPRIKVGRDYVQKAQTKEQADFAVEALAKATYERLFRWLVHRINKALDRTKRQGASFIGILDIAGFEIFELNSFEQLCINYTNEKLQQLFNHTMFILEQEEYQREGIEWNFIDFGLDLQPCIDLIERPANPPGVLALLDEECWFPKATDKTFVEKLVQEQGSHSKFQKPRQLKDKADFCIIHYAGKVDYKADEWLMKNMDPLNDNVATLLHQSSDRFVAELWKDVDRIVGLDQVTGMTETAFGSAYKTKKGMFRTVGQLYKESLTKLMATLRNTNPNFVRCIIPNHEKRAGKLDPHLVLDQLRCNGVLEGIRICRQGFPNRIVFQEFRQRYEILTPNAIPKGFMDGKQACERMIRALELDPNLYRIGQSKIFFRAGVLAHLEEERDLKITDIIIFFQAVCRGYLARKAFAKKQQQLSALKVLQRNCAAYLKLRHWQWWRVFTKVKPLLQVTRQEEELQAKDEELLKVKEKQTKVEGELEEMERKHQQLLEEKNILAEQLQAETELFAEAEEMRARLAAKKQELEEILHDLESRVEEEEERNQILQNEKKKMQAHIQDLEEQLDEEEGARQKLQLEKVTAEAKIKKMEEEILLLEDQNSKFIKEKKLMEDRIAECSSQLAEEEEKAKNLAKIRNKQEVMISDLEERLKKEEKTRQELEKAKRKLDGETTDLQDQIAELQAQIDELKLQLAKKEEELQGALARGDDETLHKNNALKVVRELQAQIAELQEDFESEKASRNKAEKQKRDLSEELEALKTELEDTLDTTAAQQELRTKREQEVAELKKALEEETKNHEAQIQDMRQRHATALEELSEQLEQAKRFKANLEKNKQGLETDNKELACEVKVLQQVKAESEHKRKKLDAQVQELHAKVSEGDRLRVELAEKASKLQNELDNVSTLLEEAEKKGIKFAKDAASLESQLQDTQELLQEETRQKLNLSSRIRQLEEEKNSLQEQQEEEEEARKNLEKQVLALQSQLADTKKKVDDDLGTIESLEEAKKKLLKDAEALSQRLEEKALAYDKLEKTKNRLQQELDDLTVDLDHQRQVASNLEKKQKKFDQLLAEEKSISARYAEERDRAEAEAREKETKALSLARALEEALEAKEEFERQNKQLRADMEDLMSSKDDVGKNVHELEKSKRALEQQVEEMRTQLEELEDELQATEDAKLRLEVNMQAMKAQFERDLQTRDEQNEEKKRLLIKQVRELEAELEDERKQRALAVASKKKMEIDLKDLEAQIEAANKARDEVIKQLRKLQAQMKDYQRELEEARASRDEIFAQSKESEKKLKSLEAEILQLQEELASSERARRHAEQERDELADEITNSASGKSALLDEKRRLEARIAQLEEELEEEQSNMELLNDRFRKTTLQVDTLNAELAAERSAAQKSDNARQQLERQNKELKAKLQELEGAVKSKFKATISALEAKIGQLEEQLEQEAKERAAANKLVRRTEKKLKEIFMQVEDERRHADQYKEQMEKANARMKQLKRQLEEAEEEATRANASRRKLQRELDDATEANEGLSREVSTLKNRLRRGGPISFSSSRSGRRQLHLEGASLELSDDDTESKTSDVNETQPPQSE
Protocol: as §1

[8] = biological target: T8, Gamma-interferon-inducible protein 16 (IFI16) (human, UniProt Q16666 1-785); assay: as above
T8 construct: Endogenous protein in WM115 / A375
T8 sequence: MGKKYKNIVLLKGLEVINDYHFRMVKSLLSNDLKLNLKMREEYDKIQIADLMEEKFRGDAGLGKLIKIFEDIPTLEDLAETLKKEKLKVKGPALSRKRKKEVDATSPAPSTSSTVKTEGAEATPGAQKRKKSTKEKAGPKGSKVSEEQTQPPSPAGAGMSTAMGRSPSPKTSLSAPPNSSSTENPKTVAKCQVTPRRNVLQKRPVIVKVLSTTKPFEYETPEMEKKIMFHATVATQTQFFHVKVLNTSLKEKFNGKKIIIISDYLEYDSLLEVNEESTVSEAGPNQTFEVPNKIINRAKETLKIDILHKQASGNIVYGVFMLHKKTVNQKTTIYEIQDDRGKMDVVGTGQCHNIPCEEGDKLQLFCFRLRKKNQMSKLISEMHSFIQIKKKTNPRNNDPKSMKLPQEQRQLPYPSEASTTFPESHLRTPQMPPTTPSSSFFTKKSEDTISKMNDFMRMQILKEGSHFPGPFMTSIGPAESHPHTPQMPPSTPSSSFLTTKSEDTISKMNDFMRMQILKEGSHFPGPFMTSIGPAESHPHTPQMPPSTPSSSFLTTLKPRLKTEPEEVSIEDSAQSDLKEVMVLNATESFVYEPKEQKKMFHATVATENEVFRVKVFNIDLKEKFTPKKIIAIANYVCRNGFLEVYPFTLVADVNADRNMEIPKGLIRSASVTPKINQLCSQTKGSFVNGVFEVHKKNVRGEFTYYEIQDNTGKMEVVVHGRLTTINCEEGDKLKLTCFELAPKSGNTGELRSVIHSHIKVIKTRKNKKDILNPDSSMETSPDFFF
Protocol: as §1

Measured: binding result

B1: Flag-tagged SHARPIN (other, human, UniProt Q9H0F6 1-387, looked up)
chain: MAPPAGGAAAAASDLGSAAVLLAVHAAVRPLGAGPDAEAQLRRLQLSADPERPGRFRLELLGAGPGAVNLEWPLESVSYTIRGPTQHELQPPPGGPGTLSLHFLNPQEAQRWAVLVRGATVEGQNGSKSNSPPALGPEACPVSLPSPPEASTLKGPPPEADLPRSPGNLTEREELAGSLARAIAGGDEKGAAQVAAVLAQHRVALSVQLQEACFPPGPIRLQVTLEDAASAASAASSAHVALQVHPHCTVAALQEQVFSELGFPPAVQRWVIGRCLCVPERSLASYGVRQDGDPAFLYLLSAPREAPATGPSPQHPQKMDGELGRLFPPSLGLPPGPQPAASSLPSPLQPSWSCPSCTFINAPDRPGCEMCSTQRPCTWDPLAAAST
notes: also called Flag-SHARPIN; not shown: FLAG tag
binds: all assays above
